Laboratory results from patent US20200087373A1 (UNIVERSITY OF COPENHAGEN, published 2020).
Ends that are not written are not given here. * marks the point of attachment. C16 diacid = O=C(O)CCCCCCCCCCCCCCC(=O)*

B1: AT170 [hGIP(5-30)NH2[S8K]-C16diacid/8] (peptide)
peptide: TFIK(C16 diacid)DYSIAMDKIHQQDFVNWLLAQK-NH2
modifications: N-terminus assumed
SMILES: CC[C@H](C)[C@H](NC(=O)[C@H](CO)NC(=O)[C@H](Cc1ccc(O)cc1)NC(=O)[C@H](CC(=O)O)NC(=O)[C@H](CCCCNC(=O)CCCCCCCCCCCCCCC(=O)O)NC(=O)[C@@H](NC(=O)[C@H](Cc1ccccc1)NC(=O)[C@@H](N)[C@@H](C)O)[C@@H](C)CC)C(=O)N[C@@H](C)C(=O)N[C@@H](CCSC)C(=O)N[C@@H](CC(=O)O)C(=O)N[C@@H](CCCCN)C(=O)N[C@H](C(=O)N[C@@H](Cc1c[nH]cn1)C(=O)N[C@@H](CCC(N)=O)C(=O)N[C@@H](CCC(N)=O)C(=O)N[C@@H](CC(=O)O)C(=O)N[C@@H](Cc1ccccc1)C(=O)N[C@H](C(=O)N[C@@H](CC(N)=O)C(=O)N[C@@H](Cc1c[nH]c2ccccc12)C(=O)N[C@@H](CC(C)C)C(=O)N[C@@H](CC(C)C)C(=O)N[C@@H](C)C(=O)N[C@@H](CCC(N)=O)C(=O)N[C@@H](CCCCN)C(N)=O)C(C)C)[C@@H](C)CC
B2: AT171 [hGIP(5-30)NH2[D9K]-C16diacid/9] (peptide)
peptide: TFISK(C16 diacid)YSIAMDKIHQQDFVNWLLAQK-NH2
modifications: N-terminus assumed
SMILES: CC[C@H](C)[C@H](NC(=O)[C@H](CO)NC(=O)[C@H](Cc1ccc(O)cc1)NC(=O)[C@H](CCCCNC(=O)CCCCCCCCCCCCCCC(=O)O)NC(=O)[C@H](CO)NC(=O)[C@@H](NC(=O)[C@H](Cc1ccccc1)NC(=O)[C@@H](N)[C@@H](C)O)[C@@H](C)CC)C(=O)N[C@@H](C)C(=O)N[C@@H](CCSC)C(=O)N[C@@H](CC(=O)O)C(=O)N[C@@H](CCCCN)C(=O)N[C@H](C(=O)N[C@@H](Cc1c[nH]cn1)C(=O)N[C@@H](CCC(N)=O)C(=O)N[C@@H](CCC(N)=O)C(=O)N[C@@H](CC(=O)O)C(=O)N[C@@H](Cc1ccccc1)C(=O)N[C@H](C(=O)N[C@@H](CC(N)=O)C(=O)N[C@@H](Cc1c[nH]c2ccccc12)C(=O)N[C@@H](CC(C)C)C(=O)N[C@@H](CC(C)C)C(=O)N[C@@H](C)C(=O)N[C@@H](CCC(N)=O)C(=O)N[C@@H](CCCCN)C(N)=O)C(C)C)[C@@H](C)CC
B3: AT172 [hGIP(5-30)NH2[Y10K]-C16diacid/10] (peptide)
peptide: TFISDK(C16 diacid)SIAMDKIHQQDFVNWLLAQK-NH2
modifications: N-terminus assumed
SMILES: CC[C@H](C)[C@H](NC(=O)[C@H](CO)NC(=O)[C@H](CCCCNC(=O)CCCCCCCCCCCCCCC(=O)O)NC(=O)[C@H](CC(=O)O)NC(=O)[C@H](CO)NC(=O)[C@@H](NC(=O)[C@H](Cc1ccccc1)NC(=O)[C@@H](N)[C@@H](C)O)[C@@H](C)CC)C(=O)N[C@@H](C)C(=O)N[C@@H](CCSC)C(=O)N[C@@H](CC(=O)O)C(=O)N[C@@H](CCCCN)C(=O)N[C@H](C(=O)N[C@@H](Cc1c[nH]cn1)C(=O)N[C@@H](CCC(N)=O)C(=O)N[C@@H](CCC(N)=O)C(=O)N[C@@H](CC(=O)O)C(=O)N[C@@H](Cc1ccccc1)C(=O)N[C@H](C(=O)N[C@@H](CC(N)=O)C(=O)N[C@@H](Cc1c[nH]c2ccccc12)C(=O)N[C@@H](CC(C)C)C(=O)N[C@@H](CC(C)C)C(=O)N[C@@H](C)C(=O)N[C@@H](CCC(N)=O)C(=O)N[C@@H](CCCCN)C(N)=O)C(C)C)[C@@H](C)CC
B4: AT174 [hGIP(5-30)NH2[I12K]-C16diacid/12] (peptide)
peptide: TFISDYSK(C16 diacid)AMDKIHQQDFVNWLLAQK-NH2
modifications: N-terminus assumed
SMILES: CC[C@H](C)[C@H](NC(=O)[C@H](CCCCN)NC(=O)[C@H](CC(=O)O)NC(=O)[C@H](CCSC)NC(=O)[C@H](C)NC(=O)[C@H](CCCCNC(=O)CCCCCCCCCCCCCCC(=O)O)NC(=O)[C@H](CO)NC(=O)[C@H](Cc1ccc(O)cc1)NC(=O)[C@H](CC(=O)O)NC(=O)[C@H](CO)NC(=O)[C@@H](NC(=O)[C@H](Cc1ccccc1)NC(=O)[C@@H](N)[C@@H](C)O)[C@@H](C)CC)C(=O)N[C@@H](Cc1c[nH]cn1)C(=O)N[C@@H](CCC(N)=O)C(=O)N[C@@H](CCC(N)=O)C(=O)N[C@@H](CC(=O)O)C(=O)N[C@@H](Cc1ccccc1)C(=O)N[C@H](C(=O)N[C@@H](CC(N)=O)C(=O)N[C@@H](Cc1c[nH]c2ccccc12)C(=O)N[C@@H](CC(C)C)C(=O)N[C@@H](CC(C)C)C(=O)N[C@@H](C)C(=O)N[C@@H](CCC(N)=O)C(=O)N[C@@H](CCCCN)C(N)=O)C(C)C
B5: AT173 [hGIP(5-30)NH2[S11K]-C16diacid/11] (peptide)
peptide: TFISDYK(C16 diacid)IAMDKIHQQDFVNWLLAQK-NH2
modifications: N-terminus assumed
SMILES: CC[C@H](C)[C@H](NC(=O)[C@H](CCCCNC(=O)CCCCCCCCCCCCCCC(=O)O)NC(=O)[C@H](Cc1ccc(O)cc1)NC(=O)[C@H](CC(=O)O)NC(=O)[C@H](CO)NC(=O)[C@@H](NC(=O)[C@H](Cc1ccccc1)NC(=O)[C@@H](N)[C@@H](C)O)[C@@H](C)CC)C(=O)N[C@@H](C)C(=O)N[C@@H](CCSC)C(=O)N[C@@H](CC(=O)O)C(=O)N[C@@H](CCCCN)C(=O)N[C@H](C(=O)N[C@@H](Cc1c[nH]cn1)C(=O)N[C@@H](CCC(N)=O)C(=O)N[C@@H](CCC(N)=O)C(=O)N[C@@H](CC(=O)O)C(=O)N[C@@H](Cc1ccccc1)C(=O)N[C@H](C(=O)N[C@@H](CC(N)=O)C(=O)N[C@@H](Cc1c[nH]c2ccccc12)C(=O)N[C@@H](CC(C)C)C(=O)N[C@@H](CC(C)C)C(=O)N[C@@H](C)C(=O)N[C@@H](CCC(N)=O)C(=O)N[C@@H](CCCCN)C(N)=O)C(C)C)[C@@H](C)CC
B6: AT175 [hGIP(5-30)NH2[A13K]-C16diacid/13] (peptide)
peptide: TFISDYSIK(C16 diacid)MDKIHQQDFVNWLLAQK-NH2
modifications: N-terminus assumed
SMILES: CC[C@H](C)[C@H](NC(=O)[C@H](CCCCN)NC(=O)[C@H](CC(=O)O)NC(=O)[C@H](CCSC)NC(=O)[C@H](CCCCNC(=O)CCCCCCCCCCCCCCC(=O)O)NC(=O)[C@@H](NC(=O)[C@H](CO)NC(=O)[C@H](Cc1ccc(O)cc1)NC(=O)[C@H](CC(=O)O)NC(=O)[C@H](CO)NC(=O)[C@@H](NC(=O)[C@H](Cc1ccccc1)NC(=O)[C@@H](N)[C@@H](C)O)[C@@H](C)CC)[C@@H](C)CC)C(=O)N[C@@H](Cc1c[nH]cn1)C(=O)N[C@@H](CCC(N)=O)C(=O)N[C@@H](CCC(N)=O)C(=O)N[C@@H](CC(=O)O)C(=O)N[C@@H](Cc1ccccc1)C(=O)N[C@H](C(=O)N[C@@H](CC(N)=O)C(=O)N[C@@H](Cc1c[nH]c2ccccc12)C(=O)N[C@@H](CC(C)C)C(=O)N[C@@H](CC(C)C)C(=O)N[C@@H](C)C(=O)N[C@@H](CCC(N)=O)C(=O)N[C@@H](CCCCN)C(N)=O)C(C)C

What was measured:
[1] = target: T1, human GIP receptor (human, UniProt P48546 22-466); assay: 125I-hGIP(1-42) competition binding, COS-7 cells expressing human GIPR, without HSA;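 note: nonspecific binding defined as radioligand bound to cells lacking the transfected receptor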
T1 construct: whole, on cells; Transiently transfected COS-7 cells expressing the human GIP receptor; also called hGIPR
T1 sequence (looked up): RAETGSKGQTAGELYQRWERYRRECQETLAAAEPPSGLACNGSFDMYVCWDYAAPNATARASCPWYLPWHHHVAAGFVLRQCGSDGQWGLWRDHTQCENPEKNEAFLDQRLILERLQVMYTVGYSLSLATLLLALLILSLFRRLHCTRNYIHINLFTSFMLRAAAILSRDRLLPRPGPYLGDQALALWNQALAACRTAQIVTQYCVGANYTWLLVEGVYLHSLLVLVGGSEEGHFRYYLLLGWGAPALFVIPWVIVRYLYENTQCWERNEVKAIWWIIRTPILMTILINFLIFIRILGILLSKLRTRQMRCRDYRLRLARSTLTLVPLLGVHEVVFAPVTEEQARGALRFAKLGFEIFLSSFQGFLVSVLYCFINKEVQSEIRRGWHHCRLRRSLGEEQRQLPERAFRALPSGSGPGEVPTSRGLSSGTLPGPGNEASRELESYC
Description: (§1) After incubation, the cells were washed twice in ice-cold binding buffer (+/−2% HSA) and lysed using 200 mM NaOH with 1% SDS for 30 min. Nonspecific binding was determined as the binding of radioactive ligand to untransfected cells.

[2] = target: T1, human GIP receptor; assay: 125I-hGIP(1-42) competition binding, COS-7 cells expressing human GIPR, with 2% HSA;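 note: nonspecific signal taken as radioligand bound to untransfected cells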
Description: as §1

[3] = target: T1, human GIP receptor; assay: cell-based or functional assay
[4] = target: T1, human GIP receptor; assay: ratio of Ki with 2% HSA to Ki without HSA, 125I-hGIP competition binding on hGIPR COS-7 cells;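 note: nonspecific binding was defined as radioligand signal on cells lacking the receptor transfection, with cell lysates measured after washes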
Description: as §1

Row | Binder | Ki [1] | Ki [2] | cAMP accumulation Fold (fold change from GIP(5-30)NH2) [3] | cAMP accumulation IC50 [3] | cAMP accumulation logIC50 [3] | Fold (Ki + HSA / Ki - HSA) [4]
1 | B1 | 594 nM | 1300 nM | 32.4 fold | 891 nM | -6.05 log(M) | 2.2 fold
2 | B2 | 79.1 nM | 500 nM | 1.1 fold | 31.6 nM | -7.5 log(M) | 6.3 fold
3 | B3 | 281 nM | 807 nM | 14.1 fold | 389 nM | -6.41 log(M) | 2.8 fold
4 | B4 | 56.1 nM | 342 nM | 0.9 fold | 23.4 nM | -7.63 log(M) | 6.1 fold
5 | B5 | 6 nM | 58.7 nM | 0.3 fold | 9.1 nM | -8.04 log(M) | 9.7 fold
6 | B6 | 53 nM | 498 nM | 0.5 fold | 14.1 nM | -7.85 log(M) | 9.4 fold
